Reference: patent US12122830 (ABL BIO, dated 2024)

Tests used:
[1] = target: T1, human ROR1 expressed on the cell surface (human, UniProt Q01973 30-937); assay: flow cytometry on BT20 cells (breast cancer), C2E3 IgG at 10 µg/mL, MFI of anti-ROR1 / MFI of 2nd Ab
T1 construct: whole, on cells; On JeKo-1 and Mino cells and other cancer cell lines (endogenous) and on transfected CHO and MC38 cells; also called cell surface-expressed ROR1; CHO-human ROR1
Description: (§1) For the cell lines, the binding to ROR1 was analyzed with FACS (FACSCalibur, BD Biosciences) by using the anti-ROR1 antibody of the present invention.
(§2) Specifically, after disassociating each cell line and washing in PBS, the number of cells was counted and set as 2 ×10^5 cells/200 µl PBS, and then the clone C2E3 among ROR1 monoclonal antibodies prepared in Example 3 was treated in 10 µg/mL, and it was reacted at 4° C. for 1 hour. After reaction, cells were washed in PBS, and then the FITC-labeled constant region (Fc)-specific antibody (Goat anti-human IgG FITC conjugate, Fc specific, Sigma, F9512, concentration: 2.0 mg/ml) was suspended in 2 µl/1 ×10^5 cells/200 µl PBS, and it was reacted at 4° C. for 1 hour. After reaction, cells were washed in PBS, it was analyzed using a FACSCalibur device. The negative control group was treated only with the FITC-labeled constant region (Fc)-specific antibody. To compare the expression degrees of ROR1 among the cancer cell lines, the value of the result for the peak shift in the experimental group treated with the ROR1 monoclonal antibody (C2E3) of the present invention was divided by the result for the peak shift in the control group (Mean Fluorescence Intensity Ratio MFI Ratio: MFI of anti-ROR1/MFI of 2nd Ab).

[2] = target: T1, human ROR1 expressed on the cell surface; assay: flow cytometry on Calu-6 cells (lung cancer), C2E3 IgG at 10 µg/mL, MFI of anti-ROR1 / MFI of 2nd Ab
Description: as §1, §2

[3] = target: T1, human ROR1 expressed on the cell surface; assay: flow cytometry on JeKo-1 cells (MCL), C2E3 IgG at 10 µg/mL, MFI of anti-ROR1 / MFI of 2nd Ab
Description: as §1, §2

[4] = target: T1, human ROR1 expressed on the cell surface; assay: flow cytometry on H1437 cells (lung cancer), C2E3 IgG at 10 µg/mL, MFI of anti-ROR1 / MFI of 2nd Ab
Description: as §1, §2

[5] = target: T1, human ROR1 expressed on the cell surface; assay: flow cytometry on MKN-28 cells (gastric cancer), C2E3 IgG at 10 µg/mL, MFI of anti-ROR1 / MFI of 2nd Ab
Description: as §1, §2

[6] = target: T1, human ROR1 expressed on the cell surface; assay: flow cytometry on HCT116 cells (colon cancer), C2E3 IgG at 10 µg/mL, MFI of anti-ROR1 / MFI of 2nd Ab
Description: as §1, §2

[7] = target: T1, human ROR1 expressed on the cell surface; assay: flow cytometry on AGS cells (gastric cancer), C2E3 IgG at 10 µg/mL, MFI of anti-ROR1 / MFI of 2nd Ab
Description: as §1, §2

[8] = target: T1, human ROR1 expressed on the cell surface; assay: flow cytometry on HT29 cells (colon cancer), C2E3 IgG at 10 µg/mL, MFI of anti-ROR1 / MFI of 2nd Ab
Description: as §1, §2

[9] = target: T1, human ROR1 expressed on the cell surface; assay: flow cytometry on H460 cells (lung cancer), C2E3 IgG at 10 µg/mL, MFI of anti-ROR1 / MFI of 2nd Ab
Description: as §1, §2

[10] = target: T1, human ROR1 expressed on the cell surface; assay: flow cytometry on BT474 cells (breast cancer), C2E3 IgG at 10 µg/mL, MFI of anti-ROR1 / MFI of 2nd Ab
Description: as §1, §2

[11] = target: T1, human ROR1 expressed on the cell surface; assay: flow cytometry on Mino cells (MCL), C2E3 IgG at 10 µg/mL, MFI of anti-ROR1 / MFI of 2nd Ab
Description: as §1, §2

[12] = target: T1, human ROR1 expressed on the cell surface; assay: flow cytometry on 697 cells (ALL), C2E3 IgG at 10 µg/mL, MFI of anti-ROR1 / MFI of 2nd Ab
Description: as §1, §2

[13] = target: T1, human ROR1 expressed on the cell surface; assay: flow cytometry on HCC70 cells (breast cancer), C2E3 IgG at 10 µg/mL, MFI of anti-ROR1 / MFI of 2nd Ab
Description: as §1, §2

[14] = target: T1, human ROR1 expressed on the cell surface; assay: flow cytometry on SNU-1750 cells (gastric cancer), C2E3 IgG at 10 µg/mL, MFI of anti-ROR1 / MFI of 2nd Ab
Description: as §1, §2

[15] = target: T1, human ROR1 expressed on the cell surface; assay: flow cytometry on Kasumi-2 cells (ALL), C2E3 IgG at 10 µg/mL, MFI of anti-ROR1 / MFI of 2nd Ab
Description: as §1, §2

T1 sequence (Q01973 30-937): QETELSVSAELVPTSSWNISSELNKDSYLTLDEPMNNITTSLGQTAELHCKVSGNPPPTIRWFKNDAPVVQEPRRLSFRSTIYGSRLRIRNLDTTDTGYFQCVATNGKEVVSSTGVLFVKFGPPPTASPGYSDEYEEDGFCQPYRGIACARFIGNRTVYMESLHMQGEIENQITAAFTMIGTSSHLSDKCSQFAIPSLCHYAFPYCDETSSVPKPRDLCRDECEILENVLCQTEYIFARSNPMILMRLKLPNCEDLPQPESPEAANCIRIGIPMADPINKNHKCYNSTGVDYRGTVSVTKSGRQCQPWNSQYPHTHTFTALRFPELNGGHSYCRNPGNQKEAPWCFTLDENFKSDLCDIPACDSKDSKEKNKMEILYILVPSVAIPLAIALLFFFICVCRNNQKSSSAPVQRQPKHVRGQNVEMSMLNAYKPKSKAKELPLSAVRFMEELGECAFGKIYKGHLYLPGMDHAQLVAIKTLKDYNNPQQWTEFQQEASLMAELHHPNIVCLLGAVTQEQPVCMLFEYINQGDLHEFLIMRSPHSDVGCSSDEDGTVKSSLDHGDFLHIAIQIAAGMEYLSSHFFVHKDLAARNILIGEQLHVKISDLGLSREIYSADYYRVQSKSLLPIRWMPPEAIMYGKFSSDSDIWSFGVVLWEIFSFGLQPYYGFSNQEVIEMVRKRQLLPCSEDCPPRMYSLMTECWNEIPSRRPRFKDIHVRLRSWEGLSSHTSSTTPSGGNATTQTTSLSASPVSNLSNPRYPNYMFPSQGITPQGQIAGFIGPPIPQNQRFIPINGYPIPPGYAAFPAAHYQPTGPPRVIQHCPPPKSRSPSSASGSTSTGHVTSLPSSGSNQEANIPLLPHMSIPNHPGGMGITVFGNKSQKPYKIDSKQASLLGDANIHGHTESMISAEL

Mean Fold Ratio [1]: 3 | Mean Fold Ratio [2]: 3.3 | Mean Fold Ratio [3]: 4 | Mean Fold Ratio [4]: 4.1 | Mean Fold Ratio [5]: 4.9 | Mean Fold Ratio [6]: 18 | Mean Fold Ratio [7]: 12.3 | Mean Fold Ratio [8]: 3.9 | Mean Fold Ratio [9]: 10.9 | Mean Fold Ratio [10]: 1.7 | Mean Fold Ratio [11]: 7.2 | Mean Fold Ratio [12]: 12 | Mean Fold Ratio [14]: 3.9 | Mean Fold Ratio [15]: 11.5
B1: C2E3 anti-ROR1 IgG antibody (antibody, V domains shown)
VH: EVQLLESGGGLVQPGGSLRLSCAASGFTFSNYAMSWVRQAPGKGLEWVSSISHNSGSTYYADSVKGRFTISRDNSKNTLYLQMNSLRAEDTAVYYCAKFISARKSLGRSYSNGMDVWGQGTLVTVSS
VL: QSVLTQPPSASGTPGQRVTISCTGSSSNIGSNDVTWYQQLPGTAPKLLIYADSKRPSGVPDRFSGSKSGTSASLAISGLRSEDEADYYCGTWDYSLSGYVFGGGTKLTVLG
Mean Fold Ratio [13]: 3.8
